Results published in publication PMC10120478.
Changes are numbered by the printed parent chain.

Legend:
[1] = target: T1, MgrA (Staphylococcus aureus XN108) (UniProt P0C1S0); assay: EMSA; details: EMSA: 20 mM Hepes pH 7.6, 1 mM EDTA, 10 mM (NH4)2SO4, 30 mM KCl, 1 mM DTT, 0.2% (w/v) Tween-20, 10 uL, room temperature 1 min; 4% native PAGE
T1 sequence: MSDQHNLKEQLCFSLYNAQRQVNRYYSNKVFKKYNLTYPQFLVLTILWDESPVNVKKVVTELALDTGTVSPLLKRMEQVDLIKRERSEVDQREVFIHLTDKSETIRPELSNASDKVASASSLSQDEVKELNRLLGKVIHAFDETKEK

[2] = target: T2, MgrA C12S C12S (Staphylococcus aureus XN108 mgrAC12S mutant) (UniProt P0C1S0); assay: EMSA; details: EMSA: 20 mM Hepes pH 7.6, 1 mM EDTA, 10 mM (NH4)2SO4, 30 mM KCl, 1 mM DTT, 0.2% (w/v) Tween-20, 10 uL, room temperature 1 min; 4% native PAGE
T2 sequence: T1 sequence with C12S

Row | Sequence | binding [1] | binding [2]
1 | GTCACACTCCATGCCATTGAGTTGTAATATATCTTTTTTAGGTATAAATGTTGTCGAATAAACAACAAGTTGTCCAAAAGATATAAATCTAAACAAGATATAGCCAGCAATTTAATATTTGTAATAGATAAAATGCTAAGTTTGATATATAATAAATTTAAGTAATTGTATAATAATATGAATTACAAACATCTAAGAAGAAACATAGGAGGCATCA (double strand) [psarV (sarV promoter probe)] | binds | binds more weakly
2 | GTTCGACATACCCAATGCCAAAAACATACCTATTGAAATTGACAAAATTCCAATACTAACTTTTCTAATTGAATAGCGTACTTTACTTTGTTGTTTATTCATGATGAAACACTCCTTACAATAATATACAAACATTATAACATAGTGCGCTATATATTTTAATTAAAATTTTCTTTGTTTTATAAAGCTATTGTAGGAGGTAAAATAATTAACTTGTCTTTCCAAAATATGAAAAGTGTACTAAAATTCATCGCACGACAAATAGCCCATTTCCGATACTT (double strand) [plytN (lytN promoter probe)] | binds | binds more weakly
